Paper PMC10239819
Values belong to the substance of their own block, whether it stands above or below them.

Assays:
Factor B (Homo sapiens) = Factor B (Homo sapiens) (UniProt P00751); settings: cited from earlier work
[1] = biological target: C3bB, the AP C3 pro-convertase (factor B complexed with C3b) (human)
[2] = biological target: C3b prepared from human EDTA plasma (human)
[3] = biological target: C3b prepared from human EDTA plasma (human); remark: listed apart in the source

Chain of Factor B (Homo sapiens) (P00751 26-259): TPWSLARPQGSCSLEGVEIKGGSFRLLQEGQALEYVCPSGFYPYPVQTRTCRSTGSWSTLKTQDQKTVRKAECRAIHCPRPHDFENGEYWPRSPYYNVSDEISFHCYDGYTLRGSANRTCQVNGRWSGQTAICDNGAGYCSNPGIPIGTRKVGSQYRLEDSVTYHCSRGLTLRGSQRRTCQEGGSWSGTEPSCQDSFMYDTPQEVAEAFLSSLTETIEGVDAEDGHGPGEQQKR
Chain of C3b C3b (P01024 566-670): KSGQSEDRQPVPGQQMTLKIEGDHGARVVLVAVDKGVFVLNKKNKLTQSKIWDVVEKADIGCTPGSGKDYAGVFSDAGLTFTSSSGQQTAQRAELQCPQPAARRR
Chain of tag-free recombinant human factor D (mature FD) (P00746 26-253): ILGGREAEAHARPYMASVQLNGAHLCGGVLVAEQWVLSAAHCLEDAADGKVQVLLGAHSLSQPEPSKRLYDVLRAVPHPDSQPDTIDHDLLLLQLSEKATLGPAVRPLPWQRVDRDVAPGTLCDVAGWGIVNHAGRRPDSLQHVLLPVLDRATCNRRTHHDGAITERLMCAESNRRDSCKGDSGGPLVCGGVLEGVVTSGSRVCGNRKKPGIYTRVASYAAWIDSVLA

Substance: C3b C3b (from UniProt P01024)
- Kd (Factor B (Homo sapiens)): 1.4 µM

- kobs/[E]T (estimate of kcat/KM) of the cleavage of C3bB (1.1 uM) by FD (0.25 nM), SDS-PAGE densitometry of Bb, 37 °C [1]: 6.5e+06 M⁻¹ s⁻¹
Substance: tag-free recombinant human factor D (mature FD) (from UniProt P00746 26-253) (enzyme)

- enhancement of the cleavage of FB by MASP-1cf (ratio of kobs/[E]T on C3bB and on free FB; SDS-PAGE densitometry of Bb, 37 °C) [2]: 100 fold
- enhancement of the cleavage of FB by FD (ratio of kobs/[E]T on C3bB and on free FB; SDS-PAGE densitometry of Bb, 37 °C) [3]: 2e+07 fold
Substance: human, serum-derived, purified factor B (natural protein)
